Measurements as given in US20070036793A1, “Methods for use of an lkb1/strad7mo25 complex” (priority 2003, published 2007).
Where no end group is shown, it is not given here. The star is where a group is joined. C6spacer = spacer between biotin and the peptide; Biotin = O=C1N[C@H]2[C@H](CS[C@H]2CCCCC(=O)*)N1

Tests used:
[1] = tested on: T1, BRSK2 MASLQVGDSLLETSCGSPHYRRR
T1 sequence: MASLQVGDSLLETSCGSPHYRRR

[2] = tested on: T2, LKBtide peptide (NUAK2 T-loop peptide)
T2 sequence: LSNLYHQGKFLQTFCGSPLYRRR

[3] = tested on: T3, MARK3 FSNEFTVGGKLDTFCGSPPYRRR
T3 sequence: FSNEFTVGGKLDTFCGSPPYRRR

[4] = tested on: T4, MELK AKPKGNKDYHLQTCCGSLAYRRR
T4 sequence: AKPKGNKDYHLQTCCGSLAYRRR

[5] = tested on: T5, SIK FGNFYKSGEPLSTWCGSPPYRRR
T5 sequence: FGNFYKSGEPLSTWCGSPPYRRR

[6] = tested on: peptide derived from the T-loop of AMPKα1 (Example 4, FIG. 26A)
[7] = tested on: T1, BRSK2 MASLQVGDSLLETSCGSPHYRRR; assay: kinetic analysis of peptide phosphorylation by the LKB1:STRAD:MO25 complex, nonlinear regression
[8] = tested on: T3, MARK3 FSNEFTVGGKLDTFCGSPPYRRR; assay: as above
[9] = tested on: T4, MELK AKPKGNKDYHLQTCCGSLAYRRR; assay: as above
[10] = tested on: T5, SIK FGNFYKSGEPLSTWCGSPPYRRR; assay: as above
[11] = substrate: CC(C)C[C@H](NC(=O)[C@H](CC(N)=O)NC(=O)[C@H](CO)NC(=O)[C@@H](N)CC(C)C)C(=O)N[C@@H](Cc1ccc(O)cc1)C(=O)N[C@@H](Cc1c[nH]cn1)C(=O)N[C@@H](CCC(N)=O)C(=O)NCC(=O)N[C@@H](CCCCN)C(=O)N[C@@H](Cc1ccccc1)C(=O)N[C@@H](CC(C)C)C(=O)N[C@@H](CCC(N)=O)C(=O)N[C@H](C(=O)N[C@@H](Cc1ccccc1)C(=O)N[C@@H](CS)C(=O)NCC(=O)N[C@@H](CO)C(=O)N1CCC[C@H]1C(=O)N[C@@H](CC(C)C)C(=O)N[C@@H](Cc1ccc(O)cc1)C(=O)N[C@@H](CCCNC(=N)N)C(=O)N[C@@H](CCCNC(=N)N)C(=O)N[C@@H](CCCNC(=N)N)C(=O)O)[C@@H](C)O; assay: Kinetic analysis of phosphorylation of T-loop peptides by the LKB1:STRAD:MO25 complex (Example 4); type: biochemical; details: other: phosphorylation by LKB1 complex, nonlinear regression; pH 7.5; 30.0 °C
Description: FIG. 26. Identification of peptide substrates for LKB1. (A) Kinetic analysis of the phosphorylation of the indicated T-loop by the LKB1:STRAD:MO25 complex was performed. The T-loop Thr residue in each peptide is underlined and in boldface type and 3 Arg residues were added to the C-terminus of each T-loop peptide to enable their capture on phosphocellulose p81 paper. Km and Vmax values were determined from nonlinear regression. (B) An aliquot of each peptide phosphorylated by LKB1 complex was subjected to solid phase Edman sequencing and ^32P-radioactivity was measured after each cycle of Edman degradation. […] The results are expressed as the peptide kinase activity generated per mg of LKB1:STRAD:MO25 added to the assay. […]
Measurement of activation of AMPK-related kinases AMPKα1 catalytic subunit and AMPK-related kinases was measured following their phosphorylation with LKB1 as follows. […] After incubation at 30° C. for the times indicated in the figure legend, AMPKα1 catalytic domain or AMPK-related kinase activities were determined by adding 30 μl of 5 mM magnesium acetate, 0.1 mM [γ-^32P]-ATP (300 cpm/pmol) and 200 μM AMARA peptide (AMARAASAAALARRR (Dale et al., 1995)) as substrate. […] Kinetic data was analysed according to the Michaelis-Menten relationship by non-linear regression using the computer program GraphPad Prism (GraphPad Software Inc, San Diego, USA). […]

[12] = biological target: T6, bacterially expressed MO25α (human, UniProt Q9Y376 1-341); assay: SPR (BiaCore 3000), biotinylated STRADα-C12 peptide on streptavidin chip, MO25α 6.25-3200 nM, steady-state fit
T6 construct: Expressed as GST fusion from pGEX-6T in E. coli BL21; GST tag cleaved off; also called MO25α protein (E. coli)
T6 sequence: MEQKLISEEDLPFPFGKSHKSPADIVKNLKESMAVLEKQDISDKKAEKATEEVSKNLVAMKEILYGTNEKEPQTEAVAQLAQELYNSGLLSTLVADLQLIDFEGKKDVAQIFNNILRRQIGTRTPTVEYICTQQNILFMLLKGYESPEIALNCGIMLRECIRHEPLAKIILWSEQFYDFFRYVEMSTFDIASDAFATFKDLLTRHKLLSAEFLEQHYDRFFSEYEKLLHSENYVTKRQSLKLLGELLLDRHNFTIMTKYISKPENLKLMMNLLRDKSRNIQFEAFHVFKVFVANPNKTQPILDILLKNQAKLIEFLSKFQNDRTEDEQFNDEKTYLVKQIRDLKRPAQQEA
Description: 5 μg of the total cell lysates prior to affinity purification were also subjected to immunoblotting with anti-Myc antibody to ensure that Myc-MO25α was expressed at similar levels in each condition (lower panel). (B) 0.5 mg of the indicated cell lysates was incubated with 5 μg of an N-terminal biotinylated peptide encompassing either the C-terminal 12 residues STRADα conjugated to streptavidin-Sepharose ([…], termed STRADα-C12) or mutants of this peptide in which the indicated residues were individually mutated to Ala. Following isolation and washing of the beads, the samples were subjected to SDS-polyacrylamide gel electrophoresis and immunoblotted with an anti-MO25α antibody. (C) Binding of bacterially expressed MO25α to the indicated peptides was analysed by surface plasmon resonance BiaCore analysis as described in Materials and Methods. […] WEF-C12 corresponds to […], WEA-C12 corresponds to […], AEF-C12 corresponds to […], WAF-C12 corresponds to […], WEF-C6 corresponds to VDDWEF.
Biacore analysis. Binding was analysed in a BiaCore 3000 system (BiaCore AB, Stevenage, UK). The indicated biotinylated peptides were bound to a streptavidin-coated Sensor chip (SA) (20 response units, RU). […] Dissociation of MO25α from each peptide was monitored over a 1 min period. […]

B1: LKB1:STRAD:MO25 complex (Example 4, FIG. 26A) (enzyme, part only; not given: STRAD and MO25 subunits, GST)
chain: MDVADPEPLGLFSEGELMSVGMDTFIHRIDSTEVIYQPRRKRAKLIGKYLMGDLLGEGSYGKVKEVLDSETLCRRAVKILKKKKLRRIPNGEANVKKEIQLLRRLRHRNVIQLVDVLYNEEKQKMYMVMEYCVCGMQEMLDSVPEKRFPVCQAHGYFRQLIDGLEYLHSQGIVHKDIKPGNLLLTTNGTLKISDLGVAEALHPFAVDDTCRTSQGSPAFQPPEIANGLDTFSGFKVDIWSAGVTLYNITTGLYPFEGDNIYKLFENIGRGDFTIPCDCGPPLSDLLRGMLEYEPAKRFSIRQIRQHSWFRKKHPLAEALVPIPPSPDTKDRWRSMTVVPYLEDLHGRAEEEEEEDLFDIEDGIIYTQDFTVPGQVLEEEVGQNGQSHSLPKAVCVNGTEPQLSSKVKPEGRPGTANPARKVCSSNKIRRLSACKQQ
[1]
  Vmax of phosphorylation of the BRSK2 T-loop peptide by the complex: 10.6 U/mg
  Vmax/Km for the BRSK2 T-loop peptide (Vmax in U/mg, Km in mM): 26
[2]
  Vmax of phosphorylation of the NUAK2 T-loop peptide by the complex: 86.8 U/mg
  Vmax/Km for the NUAK2 T-loop peptide (Vmax in U/mg, Km in mM): 578
[3]
  Vmax of phosphorylation of the MARK3 T-loop peptide by the complex: 10.2 U/mg
  Vmax/Km for the MARK3 T-loop peptide (Vmax in U/mg, Km in mM): 16
[4]
  Vmax of phosphorylation of the MELK T-loop peptide by the complex: > 60 U/mg
[5]
  Vmax of phosphorylation of the SIK T-loop peptide by the complex: 63.9 U/mg
  Vmax/Km for the SIK T-loop peptide (Vmax in U/mg, Km in mM): 139
[6]
  Km (phosphorylation of the T-loop peptide): (Km, 1.4 mM)
  Vmax of phosphorylation of the AMPK T-loop peptide by the complex: 94.1 U/mg
  Vmax/Km for the AMPK T-loop peptide (Vmax in U/mg, Km in mM): 67
[7]
  Km: 400 µM
[8]
  Km: 620 µM
[9]
  Km: > 3000 µM
[10]
  Km: 460 µM

B2: LKB1:STRAD:MO25 complex (Mus musculus) (protein)
chain: MDVADPEPLGLFSEGELMSVGMDTFIHRIDSTEVIYQPRRKRAKLIGKYLMGDLLGEGSYGKVKEVLDSETLCRRAVKILKKKKLRRIPNGEANVKKEIQLLRRLRHRNVIQLVDVLYNEEKQKMYMVMEYCVCGMQEMLDSVPEKRFPVCQAHGYFRQLIDGLEYLHSQGIVHKDIKPGNLLLTTNGTLKISDLGVAEALHPFAVDDTCRTSQGSPAFQPPEIANGLDTFSGFKVDIWSAGVTLYNITTGLYPFEGDNIYKLFENIGRGDFTIPCDCGPPLSDLLRGMLEYEPAKRFSIRQIRQHSWFRKKHPLAEALVPIPPSPDTKDRWRSMTVVPYLEDLHGRAEEEEEEDLFDIEDGIIYTQDFTVPGQVLEEEVGQNGQSHSLPKAVCVNGTEPQLSSKVKPEGRPGTANPARKVCSSNKIRRLSAC
notes: Constructs expressing the full length wild type and kinase dead mouse LKB1 have been described previously; made in house; host or cells: 293 cells, co-transfected
[11]
  Km: 150 µM

B3: STRADα-C12 peptide (Biotin-C6spacer-NLEELEVDDWEF) (peptide)
peptide: {Biotin-C6spacer}-NLEELEVDDWEF
notes: also called WEF-C12; C-terminal 12 residues of STRADα
[12]
  Kd: 850 nM
